Measurements as given in paper PMC3564804, “A Visual Dual-Aptamer Logic Gate for Sensitive Discrimination of Prion Diseases-Associated Isoform with Reusable Magnetic Microparticles and Fluorescence Quantum Dots”.

Target: PrPC, native state (recombinant human prion protein) (human, UniProt P04156 23-231)

## GTTTTGTTACAGTTCGTTTCTTTTCCCTGTCTTGTTTTGTTGTCT (ssDNA, 5'-biotin) [Apt2]
  binding signal: 2.41 fluorescence ratio

## CTTACGGTGGGGCAATT (ssDNA, 5'-NH2) [Apt1]
  binding signal: 2.41 fluorescence ratio
